A short description of this data set: soluble on expression in E. coli; label from the status in PepcDB or PDB records.
On to “MPLNKLIQDGDNQDLTDERFKATFDTDALAAVFHGGEDALKRIRELRDEVTKRWHLFDALPGAHRTRAERMEDVSRKLKNLMESVGEFADFTNNLDMLVIIRDVMGIEGFPLALHNLMFVPTIQNQADDEQTEWWLMDALQGKIIGTYAQTELGHGTNLGAIETTATYDKLTEEFIIHTPTTTATKWWPGGLGTSCTHVVLVANLIIDTKNYGLHPFFVPIRDRNSYSVMSGVRVGDIGTKMGVNCVDNGFLAFDNYRIPRRNMLMKHSKVSKEGLYTAPSHPKVGYTTMLYMRSEMIYHQAYYLAMAMAISIRYSAVRRQGEIKPGTQEVQILDYQTQQYRIFPGLARCFAFNTAAATVRQMTENCIKQLSHGNSDVLADLHALSCGLKAVVTHQASQSIDQARQACGGHGYSDASYLPTLYTCSVGACTYEGENMVMLLQLSKYLMKAAAKAEKGEEMAPLVAYLVKPDITETNDKFAKMLSHFEHIARHRVMHAYRQMIEEEKQGIERDYAFANHSVDWTKAARAHTKLFIARGFVKSVQEVSDEAVHDVLTTLAELYLSYELIEMSADLTANGYLSESDVQQIRHQIYDSMRKTRRNAVSIVDSFDICDRELRSVLGRRDGHVYENLYKWAQMSPLNERNLPHVEKYLKPMTSKL”, for which the “soluble on expression in E. coli” value was “not soluble”.
The value for “MPLRPQRPCRAQGCRSLHRNANGYCDGHADLAAEQAKAWATRKGSGRGGRPWRRKRERILKRDQYLCRCDDCAQLGRIREAHEVDHIVALAHGGTDDDDNLRAINRDCHKAKTQRESKTIKKLEHHHHHH” was “not soluble”; that for “MPLSKRRAAGRINGLKGPPAKKRKEIERHEALLMHPLAYTAEQYEQVAEESKFYKNCFETTAAENVELLKSNDQLKKELELLKNQQGNQLKVDMKFKSQIESTRQSNMTLLREREIWQNRYYDVLAEKLALSARVKSMMGDIVESVEVPNDSNGNTWELREDLEIDRSARRKTEEEPKAQKMNSTRGSLPRNQCSTRSNNQTPNEMLLKMAIGLDTTSVN” was “not soluble”; that for “MPLSPYLSFAGNCSDAIAYYQRTLGAELLYKISFGEMPKSAQDSAENCPSGMQFPDTAIAHANVRIAGSDIMMSDAIPSGKASYSGFTLVLDSQQVEEGKRWFDNLAANGKIEMAWQETFWAHGFGKVTDKFGVPWMINVVKQQPTQ” was “not soluble”.
Turning to “MPLTDPAKLQIVQQRVFLKKVCRKCGALNPIRATKCRRCHSTNLRLKKKELPTKKG”, the “soluble on expression in E. coli” value is “soluble”.
As for “MPLVQMKDILMKANQENYGVGAFSVTNMEMVMGAIKAAEELSSPLILQIAEVRLNHSPIHMIGPLMVAAAKQATVPVAVHFDHGMTFEKIQETLEIGFSSVMFDGSHYPLEENIQKTKEIVELAKQYGATVEAEIGRVGGSEDGSEDIEMLLTSTTEAKRFAEETDVDALAVAIGNAHGMYNGDPNLRLDRLQEINDVVHIPLVLHGGSGISPEDFKQCIQHGVRKINVATATFQNVITAVNNTVLNTPYSDYFTYHQDVIKAAYENVKSHMQIFGSENRA”, the “soluble on expression in E. coli” value is “not soluble”.
The value for “MPMAKPLKYPVSALVVLYSGDGGILLIERTHPEGFWQSVTGSLEPGETVAQTARREVWEETGILLADGQLQDWHDSTVYEIYHHWRHRYPKGVFENREHLFSAEIPRDTPIALQPEEHVSYGWFDMEEAAEKVFSPSNRRAILELGRFLGKR” was “not soluble”; that for “MPMIIKQEQFIPKDTVETTIDLLIRNLTTIKDNTGEFLLDFDGLKVDDKSWTIWNWPQGVGLYGIYKNYRNTKSEKALQVVNDWFEGRMQEGAPPKNVNTMAPLLTMAYLYEDTKDSKYIPYLEQWAEWVMEEMPRTNEGGLQHATYGPENKNQLWDDTLMMTVLPLAKIGKLLNRLDYLEEAKHQFLIHIKYLQDKKSGLWYHGWTFEGNHNYAEALWARGNCWITIAIPEIIEILELPKGDSLREFLLSTLNAQVAALAKYQDESGLWHTLINDSNSYLESSATAGFAYGILKAVHKKYISSEYEEVANKAIAGLLNEIDETGEVQHVSVGTGMGDNLDFYRTIGMTAMPYGQSLTILCLTELLVSYC” was “not soluble”; that for “MPMVRVATNLPDKDVPANFEERLTDLLAESMNKPRNRIAIEVLAGQRITHGASRNPVAVIKVESIGALSADDNIRHTQKITQFCQDTLKLPKDKVIITYFDLQPIHVGFNGTTVAAATM” was “soluble”.
As to “MPMVVAKRNARERTRVHTVNQAFLVLKQHLPSLRQFTKRVSKLRILNAAITYIDTLLKLIQSSEAVPQSVISATLGPIVPTPVRAVHKISKPDTVISQPIRPLAPVLPRHETYLPAPIAATCAPDHSLVDYRSTFASSLAPPVPMQMPSVFSPQPTFPYMKSLLDYPTYFYQPSTAPPPPPAPTAPQSHLIVNNQLVPMPSYQCF”, the “soluble on expression in E. coli” value was “not soluble”.
The value for “MPNELSRSLSPYLLMHANDPVEWRMWSKETLRIATEENRLIFLSIGYSSCHWCHVMHEESFVDPDVAEILNNNYIPVKVDREERPDLDSYFMKVSQVINGNGGWPLNIILLPDARPVFAMTYVPKEDRNGMTGLKTILIQLSQMYLKDPDQFKDQAKAVSDAMEERESV” was “soluble”.
Regarding “MPNKRNVELLATLKENLERAQGSFFLVNYQGLPAKETHALRQALKQNGARLFVAKNTLIRLALKELGLPELDGLQGPSAVVFYEDPVAAAKTLVQFAKSNPKGIPQVKSGLLQGQILTAKDVEALAELPTMDELRAELVGVLQAPMAELVGVLGGVARELVGILEAYAEKKAA”, the “soluble on expression in E. coli” value is given as “soluble”.
The entry for “MPNSKKSKKGGDQQHVTIVPVEPVKGENVDTVAYSSRSRISGESGHLIADVQSPHAKKHRIIFDRDHNVFEFRLLDGSAKHIIVYRLDELLSTTCYPFKIKNGVPIIPTKPTTSDKTLYFNFVYKKDKQKWRLKQIPVIFYTTSERDYWHSLIDTTLRRVKNRPKNIIIFINPFGGNGKAQKIFKDNVDAFFWLTPGLRYKVVLTERANHARDYIVEMPPEQWSAIDGLVSVGGDGLFNELLSGALLRTQTDAGRNIDNPSSHLVTPHIRFGIIGAGSANSIVSTVHETNDHATSAVHIAIGSECNVDVCTVHQHQKLIRISANAISYGWLGDVLRDSEEYRCLGPIRYQWSALRTTIRHPIYRGMVQFSLSHKENVNPKDQLPPCLEPCPVCMKPQGNDKYDYHWHAEFTHVICCVIPTVTPFTPYGLAPFTGIGDGTLDLALVPRISRFHNMQFMRKVAMYGGKQLYELDPSLNCYRVTKWSYQPDADQEDPGVWNLDGEILEQPKDEPLHFKLHPQLISFFGRDAAMVKPTKRSFIKKRKSSIVYQ” is “not soluble”; for “MPPKKTQKSGLLQFFAKQQQEKYQNSSKNEETTEHDDSCQILFEKQVAGPSKVSKPIGFPTTPKNTTKWAETLQKSSEKAGRDWLNPFPIRVSSAKKEIEKNSKTELLAKGFDDIHGNGIFYPINEPIRNFELNLLKCLSSSNCCVALPSSSPSTPGRICAMTVFNFLKWFPRCRVLLVSSSDSWISSLRQLGLESQTTKLTTVTQFKNLKTEAGKILVCTTPQCALKVVESTGGREFLEEIRLVLMELKPNECCSKYKPILNALTVKETFFRCSVLTTSTSNASRRTASITKRQQMITNLQLSDWIEQTEADFAFRSANIPAGVEVKTWKSEDNSAKHAEITGKFEKYCEKTIDDLARQCIVSSKSVKKLIWTCWKTLKQQSKLPEIEKKKLEISEFLTCTYKLLIIDGVVAARNFVKKHSEIPHIKEHAEKILEPTIFGGFSEFPAKFQQLSDSIEAFLKMDNHVLGVILCRDSDQAIEIQNYLELQLTTRCTCVRIIEEGTHPGRNLWNIQRISTVFIDRKSPKIVILPVKIRDFIGFSDGLPLSELTFIASISRDSLFNFRRFGGAHLLIINDPLEKLRNEDGRLLVDDGKFVQNNSKNAPKMGAVERYDFKFEPSRLRIDATHLPIQFFYPRDVGVTFDETAGISQLGKTHIEMTSKEHTELFKRLQNPDFSRFQRRKRVFWVLEDLEHPNENKSIPIEEMDETQLCWNQDIQYLGEIKSSKLSERLTRYMKDEPVEWIINEKRRFEYINEITSTDRLVHLDRLLRNLDAHFQVLSSC” it is “not soluble”; for “MPPKTSEVARKLERLGFKPLPRRGKGGHRVYVHPDGRKVVLPLHSGEIPWGLFKTVLKQAGITEEEFRRA” it is “soluble”.
The entry for “MPPPLPYDAMRSVWTDTAAPAMATVPLAGHADCDVAIVGAGITGLSAALHLAERGLRACVLEARDPGWGASGRNGGQVIPGIKHDPDEILARHGRERGEPLLHMVGTAADTVFDLIDRYGLDCHPVRRGWIQPAHSRQALDAVLARARQWRARGADVAELDAGDVARRLGTGRFLGGWIDRRAGSIQPLRYTRGLLRAALSLGAAVHGQSPVVALQREGSRWLVRCAQGASVRAEHVLIATNAYTDDLWPGLRRTVIAANSFIVATGPLDPALAPAILPGGEVASDSRRLLLYFRRDADRRFILGGRGRFADPVSDADWNHLVRGARLLYPQLADTPFVHRWSGRVALTRDFVPHVHQPSPNLRIVLGYNGRGVALATQMGNYLAREISGGEPLPYPVTPIAPIPLHGLKRLYIGLAVAYYGLCDRISLEHHHHHH” is “not soluble”; for “MPQPKKDKPDTPLRSDAQRNRERILAVATEELTHCANAPLSAIAKKAGVGQGTFYRNFPNREALVLEIYRYGMQQVAEAAPEMLATGEPDLALRQWMDRLAEFAMTKAGLADAIRLVTSAPGAPEKPRPTPLEDAAELLLRANHEAGTIRPGVTGDDFFLVLGGLWLIDPGENWQPRVTRFLDLVMDGLRAGAPGR” it is “not soluble”.
Regarding “MPQQNYLDELTPAFTSLLAIKEASRCLLCHDAPCSQACPAQTDPGKFIRSIYFRNFKGAAETIRENNALGAVCARVCPTEKLCQSGCTRAGVDAPIDIGRLQRFVTDFEQQTGMEIYQPGTKTLGKVAIIGAGPAGLQASVTLTNQGYDVTIYEKEAHPGGWLRNGIPQFRLPQSVLDAEIARIEKMGVTIKCNNEVGNTLTLEQLKAENRAVLVTVGLSSGSGLPLFEHSDVEIAVDFLQRARQAQGDISIPQSALIIGGGDVAMDVASTLKVLGCQAVTCVAREELDEFPASEKEFTSARELGVSIIDGFTPVAVEGNKVTFKHVRLSGELTMAADKIILAVGQHARLDAFAELEPQRNTIKTQNYQTRDPQVFAAGDIVEGDKTVVYAVKTGKEAAEAIHHYLEGACSC”, the “soluble on expression in E. coli” value is “not soluble”.
Take “MPRFAANLSMMFTEVPFIERFAAARKAGFDAVEFLFPYNYSTLQIQKQLEQNHLTLALFNTAPGDINAGEWGLSALPGREHEAHADIDLALEYALALNCEQVHVMAGVVPAGEDAERYRAVFIDNIRYAADRFAPHGKRILVEALSPGVKPHYLFSSQYQALAIVEEVARDNVFIQLDTFHAQKVDGNLTHLIRDYAGKYAHVQIAGLPDRHEPDDGEINYPWLFRLFDEVGYQGWIGCEYKPRGLTEEGLGWFDAWRGS”: the “soluble on expression in E. coli” value is reported as “soluble”.
For “MPRRIDKVSSMTKGHITMSMNKLNLFNIYRKDPLQYFGKTLYQQKWAAKTETRNYHGQQIKEKRFKNVLFDSNLKTYSQLDASLKGHDVAPTPITLQTYGTLEKRLEIALFRSMFASSVRQARQFILGGYVKVNGVVIKHPSFPLQSGDVFSVDPEKVLFALGKTKPSLEKALSVDKKQIKKWNNYVFEAKKNPEKIWDLKQNKPDSLDTLKQVEDFEKQKKSVQNAQKLMKIQQNQVTRQSILQEIIQLGNAASEPASLETFNKYGDVARTKCLQIYQTLTNKNHPITKDPSTKNIEGFLAKDENKSPEEKHEVRLINSTLRELQSSEWERIRIQFENFEEGTDTKFFQTSFAKALRGVPKLNKEEILEDESKAKVQLPWQKHLFGRKDPSRSYFTPWTPRPFLGAFAILPSHIEISFDTCHAIYLRDPVARPGHSEVISPFPDHVHERAYMYYVRKGKS”, the “soluble on expression in E. coli” value is “not soluble”.

(Values after the DeepSol protein solubility set.)
